In the Human Domainome abundance scans (Beltran et al. 2025):
± gives the uncertainty stated by the source.

B1: Histone-lysine N-methyltransferase 2A, residues 1148 to 1194; numbered along this chain, Q03164 (parent)
chain: KGRRSRRCGQCPGCQVPEDCGVCTNCLDKPKFGGRNIKKQCCKMRKC

Variants of: B1
Test: abundance fitness (aPCA) (normalised: wild type 0, dead -1); higher = more abundant; growth selection in yeast, the domain comes from the species named
Conditions: Homo sapiens
Work on KGRRSRRCGQCPGCQVPEDCGVCTNCLDKPKFGGRNLKKQCCKMRKC [I37L] yielded an abundance fitness of -0.159 ± 0.086. Work on KGRRSRRCGQCPGCQVPEDCGVCTNCLDKPKFGGRNPKKQCCKMRKC [I37P] yielded an abundance fitness of -0.554 ± 0.14. KGRRSRRCGQCPGCQVPEDCGVCTNCLDKPKFGGRNMKKQCCKMRKC [I37M] showed an abundance fitness of 0.002 ± 0.13. With KGRRSRRCGQCPGCQVPEDCGVCTNCLDKPKFGGRNHKKQCCKMRKC [I37H] the abundance fitness was -0.258 ± 0.17. KGRRSRRCGQCPGCQVPEDCGVCTNCLDKPKFGGRNVKKQCCKMRKC [I37V] gave an abundance fitness of 0.02 ± 0.078. In the case of KGRRSRRCGQCPGCQVPEDCGVCTNCLDKPKFGGRNRKKQCCKMRKC [I37R], the abundance fitness is reported as -0.421 ± 0.082. For KGRRSRRCGQCPGCQVPEDCGVCTNCLDKPKFGGRNNKKQCCKMRKC [I37N], the abundance fitness was 0.093 ± 0.17. Variant KGRRSRRCGQCPGCQVPEDCGVCTNCLDKPKFGGRNTKKQCCKMRKC [I37T] has an abundance fitness of -0.153 ± 0.13. KGRRSRRCGQCPGCQVPEDCGVCTNCLDKPKFGGRNYKKQCCKMRKC [I37Y] gave an abundance fitness of -0.265 ± 0.22. Variant KGRRSRRCGQCPGCQVPEDCGVCTNCLDKPKFGGRNQKKQCCKMRKC [I37Q] has an abundance fitness of -0.024 ± 0.15. With KGRRSRRCGQCPGCQVPEDCGVCTNCLDKPKFGGRNWKKQCCKMRKC [I37W] the abundance fitness was -0.431 ± 0.099. Work on KGRRSRRCGQCPGCQVPEDCGVCTNCLDKPKFGGRNGKKQCCKMRKC [I37G] yielded an abundance fitness of -0.056 ± 0.072. In the case of KGRRSRRCGQCPGCQVPEDCGVCTNCLDKPKFGGRNIKKICCKMRKC [Q40I], the abundance fitness is reported as -0.772 ± 0.29. KGRRSRRCGQCPGCQVPEDCGVCTNCLDKPKFGGRNIKKGCCKMRKC [Q40G] showed an abundance fitness of 0.034 ± 0.08. KGRRSRRCGQCPGCQVPEDCGVCTNCLDKPKFGGRNIKKMCCKMRKC [Q40M] gave an abundance fitness of -0.138 ± 0.14. Work on KGRRSRRCGQCPGCQVPEDCGVCTNCLDKPKFGGRNIKKLCCKMRKC [Q40L] yielded an abundance fitness of -0.177 ± 0.1. With KGRRSRRCGQCPGCQVPEDCGVCTNCLDKPKFGGRNIKKFCCKMRKC [Q40F] the abundance fitness was -0.089 ± 0.2. In the case of KGRRSRRCGQCPGCQVPEDCGVCTNCLDKPKFGGRNIKKPCCKMRKC [Q40P], the abundance fitness is reported as -0.512 ± 0.14. KGRRSRRCGQCPGCQVPEDCGVCTNCLDKPKFGGRNIKKTCCKMRKC [Q40T] gave an abundance fitness of -0.234 ± 0.14. KGRRSRRCGQCPGCQVPEDCGVCTNCLDKPKFGGRNIKKACCKMRKC [Q40A] gave an abundance fitness of -0.317 ± 0.11. KGRRSRRCGQCPGCQVPEDCGVCTNCLDKPKFGGRNIKKNCCKMRKC [Q40N] showed an abundance fitness of -0.461 ± 0.27. In the case of KGRRSRRCGQCPGCQVPEDCGVCTNCLDKPKFGGRNIKKCCCKMRKC [Q40C], the abundance fitness is reported as -0.284 ± 0.14. In the case of KGRRSRRCGQCPGCQVPEDCGVCTNCLDKPKFGGRNIKKWCCKMRKC [Q40W], the abundance fitness is reported as -0.545 ± 0.1. Work on KGRRSRRCGQCPGCQVPEDCGVCTNCLDKPKFGGRNIKKVCCKMRKC [Q40V] yielded an abundance fitness of -0.042 ± 0.088. With KGRRSRRCGQCPGCQVPEDCGVCTNCLDKPKFGGRNIKKYCCKMRKC [Q40Y] the abundance fitness was -0.493 ± 0.21. Work on KGRRSRRCGQCPGCQVPEDCGVCTNCLDKPKFGGRNIKKSCCKMRKC [Q40S] yielded an abundance fitness of -0.103 ± 0.097. In the case of KGRRSRRCGQCPGCQVPEDCGVCTNCLDKPKFGGRNIKKRCCKMRKC [Q40R], the abundance fitness is reported as -0.229 ± 0.084. KGRRSRRCGQCPGCQVPEDCGVCTNCLDKPKFGGRNIKKKCCKMRKC [Q40K] showed an abundance fitness of -0.249 ± 0.15. KGRRSRRCGQCPGCQVPEDCGVCTNCLDKPKFGGRNIKKHCCKMRKC [Q40H] showed an abundance fitness of -0.312 ± 0.18. In the case of KGRRSRRCGQCPGCQVPEDCGVCTNCLDKPKFGGRNIKKECCKMRKC [Q40E], the abundance fitness is reported as 0.312 ± 0.13. With KGRRSRRCGQCPGCQVPEDCGVCTNCLDKPKFGGRNIKKDCCKMRKC [Q40D] the abundance fitness was -0.03 ± 0.17. For KGRRSRRCGQCPGCQVPEDCGVCTNCLDKPKFGGRNIKKQCCHMRKC [K43H], the abundance fitness was 0.37 ± 0.14. For KGRRSRRCGQCPGCQVPEDCGVCTNCLDKPKFGGRNIKKQCCGMRKC [K43G], the abundance fitness was -0.312 ± 0.098. With KGRRSRRCGQCPGCQVPEDCGVCTNCLDKPKFGGRNIKKQCCAMRKC [K43A] the abundance fitness was -0.015 ± 0.087. KGRRSRRCGQCPGCQVPEDCGVCTNCLDKPKFGGRNIKKQCCIMRKC [K43I] gave an abundance fitness of 0.121 ± 0.12. Work on KGRRSRRCGQCPGCQVPEDCGVCTNCLDKPKFGGRNIKKQCCDMRKC [K43D] yielded an abundance fitness of 0.018 ± 0.11. Variant KGRRSRRCGQCPGCQVPEDCGVCTNCLDKPKFGGRNIKKQCCLMRKC [K43L] has an abundance fitness of 0.07 ± 0.08. KGRRSRRCGQCPGCQVPEDCGVCTNCLDKPKFGGRNIKKQCCEMRKC [K43E] gave an abundance fitness of 0.179 ± 0.14. In the case of KGRRSRRCGQCPGCQVPEDCGVCTNCLDKPKFGGRNIKKQCCFMRKC [K43F], the abundance fitness is reported as -0.224 ± 0.097. Variant KGRRSRRCGQCPGCQVPEDCGVCTNCLDKPKFGGRNIKKQCCMMRKC [K43M] has an abundance fitness of -0.031 ± 0.099. Variant KGRRSRRCGQCPGCQVPEDCGVCTNCLDKPKFGGRNITKQCCKMRKC [K38T] has an abundance fitness of -0.221 ± 0.12. In the case of KGRRSRRCGQCPGCQVPEDCGVCTNCLDKPKFGGRNIQKQCCKMRKC [K38Q], the abundance fitness is reported as -0.348 ± 0.15. KGRRSRRCGQCPGCQVPEDCGVCTNCLDKPKFGGRNIRKQCCKMRKC [K38R] showed an abundance fitness of -0.036 ± 0.085. KGRRSRRCGQCPGCQVPEDCGVCTNCLDKPKFGGRNIWKQCCKMRKC [K38W] gave an abundance fitness of -0.245 ± 0.14. KGRRSRRCGQCPGCQVPEDCGVCTNCLDKPKFGGRNIDKQCCKMRKC [K38D] gave an abundance fitness of -0.111 ± 0.16. For KGRRSRRCGQCPGCQVPEDCGVCTNCLDKPKFGGRNIMKQCCKMRKC [K38M], the abundance fitness was -0.136 ± 0.15. Variant KGRRSRRCGQCPGCQVPEDCGVCTNCLDKPKFGGRNIEKQCCKMRKC [K38E] has an abundance fitness of -0.166 ± 0.12. Variant KGRRSRRCGQCPGCQVPEDCGVCTNCLDKPKFGGRNISKQCCKMRKC [K38S] has an abundance fitness of -0.011 ± 0.095. In the case of KGRRSRRCGQCPGCQVPEDCGVCTNCLDKPKFGGRNILKQCCKMRKC [K38L], the abundance fitness is reported as 0.143 ± 0.088. Variant KGRRSRRCGQCPGCQVPEDCGVCTNCLDKPKFGGRNIFKQCCKMRKC [K38F] has an abundance fitness of -0.125 ± 0.16. KGRRSRRCGQCPGCQVPEDCGVCTNCLDKPKFGGRNIPKQCCKMRKC [K38P] gave an abundance fitness of -0.29 ± 0.14. KGRRSRRCGQCPGCQVPEDCGVCTNCLDKPKFGGRNIGKQCCKMRKC [K38G] showed an abundance fitness of -0.35 ± 0.095. KGRRSRRCGQCPGCQVPEDCGVCTNCLDKPKFGGRNIAKQCCKMRKC [K38A] gave an abundance fitness of -0.099 ± 0.096. Variant KGRRSRRCGQCPGCQVPEDCGVCTNCLDKPKFGGRNIIKQCCKMRKC [K38I] has an abundance fitness of 0.275 ± 0.2. Variant KGRRSRRCGQCPGCQVPEDCGVCTNCLDKPKFGGRNICKQCCKMRKC [K38C] has an abundance fitness of -0.363 ± 0.12.
